Molecular target: T1, purified Mfn2 (human, UniProt O95140 1-757)
T1 sequence (looked up): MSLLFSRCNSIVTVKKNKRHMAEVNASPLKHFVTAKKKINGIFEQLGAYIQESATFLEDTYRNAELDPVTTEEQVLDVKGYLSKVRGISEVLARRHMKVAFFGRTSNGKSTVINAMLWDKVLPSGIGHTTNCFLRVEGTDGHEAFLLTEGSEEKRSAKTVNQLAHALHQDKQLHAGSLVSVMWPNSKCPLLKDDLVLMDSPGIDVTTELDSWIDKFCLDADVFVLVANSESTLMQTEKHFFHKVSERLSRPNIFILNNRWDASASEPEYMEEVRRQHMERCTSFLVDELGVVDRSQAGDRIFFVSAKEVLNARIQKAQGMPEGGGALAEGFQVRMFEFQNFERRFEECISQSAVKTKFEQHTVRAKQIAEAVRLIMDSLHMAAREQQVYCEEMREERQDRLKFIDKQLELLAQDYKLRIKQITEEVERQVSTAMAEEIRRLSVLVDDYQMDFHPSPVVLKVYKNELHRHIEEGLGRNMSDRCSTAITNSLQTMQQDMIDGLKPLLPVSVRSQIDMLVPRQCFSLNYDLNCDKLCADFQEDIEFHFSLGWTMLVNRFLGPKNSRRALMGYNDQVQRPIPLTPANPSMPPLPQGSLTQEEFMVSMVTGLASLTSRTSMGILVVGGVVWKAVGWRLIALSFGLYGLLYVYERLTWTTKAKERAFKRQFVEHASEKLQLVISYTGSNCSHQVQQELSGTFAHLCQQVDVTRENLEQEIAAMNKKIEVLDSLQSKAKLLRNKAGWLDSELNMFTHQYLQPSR
Experiment: pull-down

binding result: binds
B1: purified and biotinylated TAK1 (enzyme, human, UniProt O43318 1-606, looked up)
chain: MSTASAASSSSSSSAGEMIEAPSQVLNFEEIDYKEIEVEEVVGRGAFGVVCKAKWRAKDVAIKQIESESERKAFIVELRQLSRVNHPNIVKLYGACLNPVCLVMEYAEGGSLYNVLHGAEPLPYYTAAHAMSWCLQCSQGVAYLHSMQPKALIHRDLKPPNLLLVAGGTVLKICDFGTACDIQTHMTNNKGSAAWMAPEVFEGSNYSEKCDVFSWGIILWEVITRRKPFDEIGGPAFRIMWAVHNGTRPPLIKNLPKPIESLMTRCWSKDPSQRPSMEEIVKIMTHLMRYFPGADEPLQYPCQYSDEGQSNSATSTGSFMDIASTNTSNKSDTNMEQVPATNDTIKRLESKLLKNQAKQQSESGRLSLGASRGSSVESLPPTSEGKRMSADMSEIEARIAATTAYSKPKRGHRKTASFGNILDVPEIVISGNGQPRRRSIQDLTVTGTEPGQVSSRSSSPSVRMITTSGPTSEKPTRSHPWTPDDSTDTNGSDNSIPMAYLTLDHQLQPLAPCPNSKESMAVFEQHCKMAQEYMKVQTEIALLLQRKQELVAELDQDEKDQQNTSRLVQEHKKLLDENKSLSTYYQQCKKQLEVIRSQQQKRQGTS
modifications: biotinylated

Source: article doi:10.1101/2022.01.11.475884 (bioRxiv, 2022)
